The results in this text go back to doi:10.1101/2025.05.02.651258, “The LOTUS domain of Oskar promotes localisation of both protein and mRNA components of Drosophila germ plasm” (bioRxiv, 2025).

The term stoichiometry N denotes a count of units in the complex or per binding partner.

Series [1] concerns the molecule itself. Nature of the series: SEC-MALS; Superdex 75 10/300 GL, 10 mg/mL, 20 mM Tris pH 8.0, 200 mM NaCl; data not shown.
Series [2] concerns the molecule itself. In words: SEC; analytical SEC, Superose 6 PC 3.2/30, 5.0 mg/mL, 20 mM Tris pH 8.0 with 200, 500 or 1000 mM NaCl, 0.05 mL/min; apparent molecular weight from gel filtration standards. On the technique in general: Size exclusion chromatography separates by hydrodynamic size, large species first.

B1: D. melanogaster Oskar LOTUS domain, residues 139-241 (Losk139–241), purified (domain or fragment)
chain: MTIIESNYISVREEYPDIDSEVRAILLSHAQNGITISSIKSEYRKLTGNPFPLHDNVTDFLLTIPNVTAECSESGKRIFNLKASLKNGHLLDMVLNQKERTSDLEVLFQ
notes: Oskar, D. melanogaster, LOTUS domain residues 139-241 (Losk139–241); numbers on the long isoform (1-606); remnant of the 3C protease cleavage site left at the C-terminus after removal of the decahistidine tag; Crystal form 4 was grown from HgCl2-derivatised protein; also called fly LOTUS domain; source: E. coli BL21(DE3), purified (Ni-NTA, 3C protease cleavage, gel filtration); not shown: His10, …
In the case of B1, the “stoichiometry N” value in series [1] is 2; in series [2], about 2.
